Measurements reported in CN118525034A (INTERVET INT BV, dated 2024).

T1: 犬IL-31RA ECD-10His (犬 (canine))
T1 chain: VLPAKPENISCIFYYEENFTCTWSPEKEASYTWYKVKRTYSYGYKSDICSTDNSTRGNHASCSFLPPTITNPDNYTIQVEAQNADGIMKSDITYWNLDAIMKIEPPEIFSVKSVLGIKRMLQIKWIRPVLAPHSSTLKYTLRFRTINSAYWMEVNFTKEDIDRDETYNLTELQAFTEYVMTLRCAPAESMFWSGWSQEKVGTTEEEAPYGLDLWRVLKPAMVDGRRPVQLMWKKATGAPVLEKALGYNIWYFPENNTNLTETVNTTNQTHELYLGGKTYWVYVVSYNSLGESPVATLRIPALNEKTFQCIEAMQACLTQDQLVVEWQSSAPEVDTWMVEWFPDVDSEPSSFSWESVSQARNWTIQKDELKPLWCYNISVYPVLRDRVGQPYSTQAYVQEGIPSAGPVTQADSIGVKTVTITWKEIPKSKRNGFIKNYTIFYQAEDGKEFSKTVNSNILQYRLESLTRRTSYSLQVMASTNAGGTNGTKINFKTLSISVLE


Assays:
[1] = molecular target: 犬IL-31RA ECD-10His (犬 (canine)); assay: ELISA, IL-31RA ECD coated at 1 µg/mL, biotinylated canine IL-31 titrated, HRP-streptavidin
犬IL-31RA ECD-10His [2] = molecular target: T1, 犬IL-31RA ECD-10His; assay: Octet BLI; lower end of the range, tied to 224G3 by Table 2
犬IL-31RA ECD-10His [3] = molecular target: T1, 犬IL-31RA ECD-10His; assay: Octet BLI, biotinylated canine IL-31RA on SA biosensor, mAb 100-3.13 nM, 1:1 model
犬IL-31RA ECD-10His [4] = molecular target: T1, 犬IL-31RA ECD-10His; assay: Octet BLI; upper end of the range, tied to 85C10 by Table 2
犬IL-31RA ECD-10His [5] = molecular target: T1, 犬IL-31RA ECD-10His; assay: Octet BLI, biotinylated canine IL-31RA on SA biosensor

Row | Molecule | EC50 [1] [ng/mL] | Kd (犬IL-31RA ECD-10His [2]) [nM] | Kd (犬IL-31RA ECD-10His [3]) [nM] | koff (犬IL-31RA ECD-10His [3]) [s⁻¹] | kon (犬IL-31RA ECD-10His [3]) [M⁻¹ s⁻¹] | Kd (犬IL-31RA ECD-10His [4]) [nM] | Kd (犬IL-31RA ECD-10His [5]) [nM]
1 | 犬IL-31 (ligand) | 0.55 | – | – | – | – | – | –
2 | 224G3 (antibody, V domains shown) VH: EVQLVESGGDLVKPGGSLKLSCAASGFTFSSYGMSWVRQTPDKRLEWVATISNGGSYTYYPDSVKGRFTISRDNAKNTLYMQMSSLKSEDTAMYYCARNEPPDYWGQGTSVTVSS VL: DIQMTQSPASLSVSVGETVTITCRASENIYSSLAWYQQKQGKSPQLLVYAATNLADGVPSRFSGSGSGTQYSLKINSLQSEDSGNYYCQHFRDTPPTFGGGTKLEIK | – | 0.001 | 0.000964 | 1.08e-06 | 1.12e+06 | – | –
3 | 85C10 (antibody, V domains shown) VH: EFQLQQSGPELVKPGASVKISCKASGYSFTDYSINWVKQSNGKSLEWIGVINPNYGTSSHNQKFKGKATMTVDQSSSTAYMQLNSLTSEDSAVYYCARALDDYYFYWYFDVWGIGTTVTVSS VL: DVVMTQTPLSLPVSLGDQASISCRSSQSLIHTNGNTYLHWYLQKPGQSPKLLIYKVSNRFSGVPDRFSGSGSGTDFTLKISRLEAEDLGVYFCSQSTHVPLTFGAGTKLELR | – | – | 0.851 | 0.000363 | 427000 | 0.85 | –
4 | 218D9 (antibody, V domains shown) VH: QVTLKESGPGILQPSQTLSLTCSFSGFSLSTFGRGVGWIRQPSGKGLDWLTHIWWDDDKYYNPALKSRLTISKDTSKNQVFLKIANVDTADTATYYCARIAGGLRRAPYAMDSWGQGTSVTVSS VL: DVVMTQTPLSLPVSLGDQASISCRSSQSLVHTNGNTYLHWYLQKPGQSPKLLIYKVSNRFSGVPDRFSGSGSGTDFTLKISRVEAEDLGVYFCSQTTHVPLTFGAGTKLELK | – | – | 0.0698 | 4.63e-05 | 664000 | – | ~0.07
5 | 65G9 (antibody, V domains shown) VH: EFQLQQSGPELVKPGASVKISCKASGYSFTDYGMNWLKQINGKSLEWIAIINPNYGTASSNPKFKDKATLTVDHSSSTAYMQLSSLTSEDSAVYYCARAFDGYYFYWYFDVWGTGTTVTVSS VL: SIVMTQTPKFLLVSAGDRVTITCKASQSVTNDVTWYQQKPGQSPKLLIFSASNRYTGVPDRFTGSGYGTDFTFTISTVQAEDLAVYFCQQDYSSPWTFGGGTKLEIK | – | – | 0.451 | 0.000355 | 787000 | – | –
6 | 51F8 (antibody, V domains shown) VH: EVQLQQSVAELVRPGASVKLSCTASGFNIKNTFIHWVKQRPEQGLEWIGRIDPANGNTKYAPKFQGRATLTADTSSNTAYLQLSSLTSEDTAIYYCARYYYVSSYFDVWGTGTTVTVSS VL: SIVMTQTPKFLLVSAGDRVTITCKASQSVTNDVTWYQQKPGQSPKLLIYYASNRYTGVPDRFTGSGYGTDFTFTISTVQAEDLAVYFCQQDYSSPFTFGSGTKLEIK | – | – | 0.207 | 0.000141 | 684000 | – | ~0.2
7 | 209G5 (antibody, V domains shown) VH: EVQLQQSVAELVRPGASVKLSCTASGFNIKNTYMHWVKERPEQGLEWIGRIDPANGNSKYAPKFQGKATITTDTSSNTAYLQLSSLTSEDTAIYYCARYYYVSSHFDVWGTGTTVTVSS VL: DIKMTQSPSSMYASLGERVTITCKASQDINSYLNWFQQKPGKSPKTLIYRADRLVDGVPSRFSGSGSGQDYSLTISSLEYEDMGIYYCLQYDEFPLTFGDGTKLELN | – | – | 0.131 | 4.87e-05 | 370000 | – | –
